Among the data in the supplement of paper PMC10567573 are protein stability index values, retold here.

± gives the standard deviation.

The data set is described as follows: protein stability index of a GFP-peptide fusion (GPS, HEK-293T) (PSI 1-6); higher = more stable.
Where [1] appears, read: treatment: DMSO, c terminus: a fixed tail appended.
The mark [2] stands for this setting: treatment: MLN4924 1 uM, 8 h, c terminus: a fixed tail appended.
Setting [3] is: treatment: DMSO, c terminus: native.
Where [4] appears, read: treatment: MLN4924 1 uM, 8 h, c terminus: native.
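Note: 24-mer peptide tiles fused after GFP, lentivirally expressed, FACS-sorted into six equal bins by GFP/DsRed ratio, decoded by Illumina sequencing, PSI is the read-weighted mean bin number.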

Turning to EEDGGADEHEHPLTSELDPEKEQE [MIA2], the protein stability index is, setting by setting: under setting [1], 5.4 ± 0.57; under setting [2], 5.5 ± 0.37.
The like results for EEEKEWAFEESKIDEHHFVAVALR [AASDHPPT] were, in that order, 3.73 ± 0.37 and 3.84 ± 0.42.
Sequence EEYTTGMADCILVNSQFTAAVFKE [ALG2] registered a protein stability index under setting [1] of 3.21 ± 0.27 and a protein stability index under setting [2] of 3.26 ± 0.24.
EFEAVVRQAELAIERCIFPERIYQ [PI4K2A]: the protein stability index under setting [1] came to 2.43 ± 0.37 and the protein stability index under setting [2] amounted to 2.33 ± 0.41.
On to EFNHTGELLATGDKGGRVVIFQRE [PPP2R2B], for which the protein stability index came to 3.18 ± 0.24 under setting [1] and 3.19 ± 0.22 under setting [2].
EFVVRCFACPSQALFFKNIMNIID [KCNA4]: the protein stability index reads like this: under setting [1], 2.4 ± 0.78; under setting [2], 2.12 ± 0.55.
Consider EGGWWKAISLSTGRESYIPGICVA [SLA], for which the protein stability index turned out to be 2.03 ± 0.91 under setting [1] and 2.05 ± 0.52 under setting [2].
For EGPSVVKRPAPRTAPRQEKHERTH [SPRY1], the protein stability index reads like this: under setting [1], 5.17 ± 0.29; under setting [2], 5.13 ± 0.2.
The like results for EGRLRYPSRREPPPRRSRSRSHDR [CLK3] were, in that order, 5.33 ± 0.31 and 5.45 ± 0.1.
The like results for EGSLWAVGTESQGRDWRHLPTITS [PXN] were, in that order, 3.23 ± 0.16 and 3.34 ± 0.16.
On the same counts, the results for EGVAGKSGLEKEVQRLTSRAARDY [FCHSD1] are 4.69 ± 0.039 and 4.84 ± 0.09.
As to EILRYMKEFTLLLSAANVCLDPII [P2RY14], the protein stability index runs as follows: under setting [1], 2.44 ± 0.47; under setting [2], 2.26 ± 0.31.
On the same counts, the results for EILTKESNVQEVRCPVTVCGDVHG [PPP2CA] are 3.69 ± 0.57 and 3.79 ± 0.12.
Regarding EILYPALPTDGSTGVELAPRSAEP [PCDHGA10], the protein stability index runs as follows: under setting [1], 4.57 ± 0.23; under setting [2], 4.85 ± 0.1.
For EKPLGRVGVFLDFESGSVSFLNVT [TRIM43], the protein stability index reads like this: under setting [1], 2.28 ± 0.33; under setting [2], 2.17 ± 0.55.
As to EKQIRSFLIEGPLINTIRVVCASY [PLEKHN1], the protein stability index amounted to 3.13 ± 0.74 under setting [1] and 2.79 ± 0.48 under setting [2].
Consider ELDYLMDVLVGTQALERPPGPGR [SERTAD1], for which the protein stability index by setting is: under setting [3], 2.23 ± 0.26; under setting [4], 2.67 ± 0.58.
On to ELPAPAEVAAKNQSLEGDTTKGTS [MLH1], for which the protein stability index was 5.61 ± 0.14 under setting [1] and 5.59 ± 0.16 under setting [2].
Regarding ELQNQLAACTRALESSEELLETAN [FSD1], the protein stability index by setting is: under setting [1], 4.24 ± 0.37; under setting [2], 4.37 ± 0.39.
The like results for ELRNMCDEHIASEEPAEKEDLLQQ [CLCN6] were, in that order, 5.38 ± 0.18 and 5.45 ± 0.12.
As to ELSRQVRSSVELELERCRQQAGLL [PPEF2], the protein stability index reads like this: under setting [1], 3.23 ± 0.25; under setting [2], 3.2 ± 0.39.
Turning to ELVLPFQELQIDDNEYAYLKAIIF [HNF4A], the protein stability index was 2.16 ± 0.14 under setting [1] and 2.37 ± 0.35 under setting [2].
Consider EMQLSEVQIKTWFQNRRMKHKRQM [VENTX], for which the protein stability index reads like this: under setting [1], 3.26 ± 0.16; under setting [2], 3.19 ± 0.37.
On the same counts, the results for ENEKDRADQTVLTEDEKKELENLA [CHGB] are 5.54 ± 0.19 and 5.75 ± 0.18.
As for ENFDHNTLALILQIPTQNTQARQV [PPFIA4], the protein stability index is 2.58 ± 0.21 under setting [1] and 2.81 ± 0.45 under setting [2].
Take ENNYYWSASECMQDFNTMFTNCYI [BRD3]: the protein stability index under setting [1] worked out at 2.28 ± 0.67 and the protein stability index under setting [2] stood at 2.49 ± 0.44.
For ENQSPSSSNYFSPRESTDFSSSSQ [ZBTB22], the protein stability index is 5.12 ± 0.31 under setting [1] and 4.96 ± 0.34 under setting [2].
On the same counts, the results for EPANLDILDTAGQAEFTAMRDQYM [RIT1] are 4.83 ± 0.24 and 4.67 ± 0.2.
On the same counts, the results for EPFSARVLVLCVFNSILPGVLILF [SOAT1] are 3.05 ± 0.14 and 3.06 ± 0.22.
Consider EPPKCLDPCVISQEIMEKYNIKLK [CFHR2], for which the protein stability index under setting [1] was determined as 2.84 ± 0.27 and the protein stability index under setting [2] worked out at 2.87 ± 0.34.
The like results for EQELKTVTYSLLKRLKERSLDTLL [SMAD6] were, in that order, 2.35 ± 0.34 and 2.22 ± 0.31.
On the same counts, the results for ERERLYPFSECGEAVSDSTPFLTN [ZNF263] are 4.16 ± 0.16 and 4.11 ± 0.27.
On the same counts, the results for ERLQAIAEKRKRQAEIENKRRQLE [PALM] are 3.74 ± 0.16 and 3.73 ± 0.27.
For ERLRLEQQKQQIMAALNSQTAVQF [ACBD3], the protein stability index under setting [1] is 3.36 ± 0.46 and the protein stability index under setting [2] was determined as 3.42 ± 0.28.
On the same counts, the results for ERNFWDPSPQLDTQQEIKLCQKSN [WDR41] are 3.92 ± 0.34 and 3.94 ± 0.37.
Take ERPGAEGAPLLPPPLPPPSPPGSG [ACBD3]: the protein stability index by setting is: under setting [1], 5.54 ± 0.24; under setting [2], 5.47 ± 0.19.
Regarding ERVVREALEKLRSEMEEEKRQAVN [ZMYND11], the protein stability index is, setting by setting: under setting [1], 4.59 ± 0.46; under setting [2], 4.64 ± 0.063.
As for ESALIALDSEKPKKLRFHPKQLYF [EHMT1], the protein stability index runs as follows: under setting [1], 2.38 ± 0.48; under setting [2], 2.54 ± 0.19.
Consider ESFGQNYPEEADGTLDCISMALTC [RBBP5], for which the protein stability index worked out at 3.72 ± 0.26 under setting [1] and 3.53 ± 0.18 under setting [2].
Turning to ESFTVHFLPLNSAQTLHHKSCYNG [DNAAF3], the protein stability index by setting is: under setting [1], 2.4 ± 0.62; under setting [2], 2.49 ± 0.42.
The like results for ESKLLRDLSAANEKNLLLQNQVDE [LRRC45] were, in that order, 5.37 ± 0.2 and 5.15 ± 0.34.
The like results for ESTFKNTEISFILGQEFDEVTADD [FABP4] were, in that order, 4.74 ± 0.13 and 5.03 ± 0.18.
For ETQLKTLAQFPNTLLGNPKKRMRY [KCNA1], the protein stability index by setting is: under setting [1], 3.25 ± 0.46; under setting [2], 3.61 ± 0.46.
In the case of EVFRFVQSCARAVVPSYIPLVKKH [CPOX], the protein stability index by setting is: under setting [1], 2.12 ± 0.21; under setting [2], 2.37 ± 0.33.
The like results for EVKKKGKMKKLGQAMEEDLIVGLQ [HDAC6] were, in that order, 4.55 ± 0.72 and 4.75 ± 0.14.
On the same counts, the results for EVLLDHLKAHAEEKPPSGTKEKKH [PLAGL1] are 4.88 ± 0.2 and 5.08 ± 0.14.
The like results for EVQAVHKNTTYDLIANIVHDGKPS [USP39] were, in that order, 3.69 ± 0.17 and 3.87 ± 0.32.
Take EYVPGGELFSYLRNRGRFSSTTGL [PRKX]: the protein stability index reads like this: under setting [1], 2.53 ± 0.18; under setting [2], 2.82 ± 0.27.
FAAEARYPIYVIPEPPPVSFQPYH [TENT5D] came in with a protein stability index under setting [1] of 2.24 ± 0.22 and a protein stability index under setting [2] of 2.26 ± 0.34.
For FAEKGELRKSIFSESRKPTVSIME [TRIM29], the protein stability index under setting [1] was 2.37 ± 0.6 and the protein stability index under setting [2] is 3.09 ± 0.59.
Consider FASLRPSEPFLTPYLLGPDKNLTE [SLC19A2], for which the protein stability index was determined as 2.59 ± 0.48 under setting [1] and 3.17 ± 0.62 under setting [2].
On the same counts, the results for FCEELESMIQEQFKKGKNPTGLLA [ADD1] are 3.9 ± 0.2 and 3.81 ± 0.18.
Consider FCMFYAVLGIPLTLVMFQSLGERM [KCNK9], for which the protein stability index by setting is: under setting [1], 3.7 ± 0.32; under setting [2], 2.95 ± 0.31.
As to FCVALSDYDLVLAEDEEMNRMHES [GNAI1], the protein stability index is, setting by setting: under setting [1], 3.52 ± 0.41; under setting [2], 3.43 ± 0.28.
On the same counts, the results for FDDCLYALCVVDTIKRSSQTGEWQ [GFOD1] are 2.09 ± 0.42 and 2.29 ± 0.25.
On the same counts, the results for FDRNADGYIDPEELAEIFRASGEH [TNNC2] are 5.32 ± 0.21 and 5.25 ± 0.2.
On the same counts, the results for FEPRLLVQSIELQRPRFITSGGSN [VPS39] are 2.88 ± 0.3 and 2.9 ± 0.21.
In the case of FFIYGQVLYTDKTYAMGHLIQRKK [TNFSF13B], the protein stability index was 2.4 ± 1 under setting [1] and 2.12 ± 0.53 under setting [2].
The like results for FFRSLLPNYTMEGERPEEGVAGGL [TCF25] were, in that order, 3.09 ± 0.32 and 3.52 ± 0.15.
On the same counts, the results for FFSVIFMTVGILSNSLAIAILMKA [PTGFR] are 3.12 ± 0.26 and 2.75 ± 0.5.
On the same counts, the results for FFYTAATNNPRFDKMEGNPICVQI [CRY1] are 2.92 ± 0.33 and 2.83 ± 0.67.
With FGGAAAVAILAVAIGVALALRKK [BCL2L13], the protein stability index reads like this: under setting [3], 2.99 ± 0.2; under setting [4], 2.81 ± 0.21.
As to FGGVLEYFMIQALNQKTSEKMKKR [RHOBTB3], the protein stability index is, setting by setting: under setting [1], 2.14 ± 0.66; under setting [2], 2.24 ± 0.25.
The like results for FGIDVKEVDPTGHSFVLVTSLGLT [MAGEA10] were, in that order, 2.43 ± 0.55 and 2.28 ± 0.59.
As for FGKKEKGRLIQLSRDGATGHVLLT [PPFIA4], the protein stability index is 2.71 ± 0.36 under setting [1] and 2.78 ± 0.2 under setting [2].
The like results for FHCSMSPGNLEKNRYGDVPCLDQT [PTPN9] were, in that order, 2.79 ± 0.51 and 2.82 ± 0.47.
In the case of FHLDVEDYLSGVLILASELSRLSV [TSN], the protein stability index amounted to 3.06 ± 0.74 under setting [1] and 3.04 ± 0.48 under setting [2].
On to FIQKRCNSLLEEETILHFFVQILL [NEK8], for which the protein stability index reads like this: under setting [1], 2.41 ± 0.36; under setting [2], 2.28 ± 0.47.
As to FLFVLARVPAGIFKHTLSISRALL [MFSD9], the protein stability index runs as follows: under setting [1], 3.29 ± 0.23; under setting [2], 2.81 ± 0.11.
The like results for FLHLRTHTEERPYECNHCGKGFRH [ZNF8] were, in that order, 2.79 ± 0.34 and 2.97 ± 0.36.
On to FLVAEWNEPSINFYKRRGASDLSS [SAT1], for which the protein stability index by setting is: under setting [1], 2.32 ± 0.28; under setting [2], 2.43 ± 0.45.
The like results for FMYFLRGSLPWQGLKADTLKERYQ [CSNK1G1] were, in that order, 2.43 ± 0.35 and 2.26 ± 0.17.
